Assay results reported in paper PMC12624773, “Receptor activity–modifying protein 3 enhances GLP-1-mediated insulin secretion” (The Journal of Biological Chemistry, 2025).
Entries after “also recorded” stand apart in the source; their conditions may differ. Numbered stars: 1 amine (or outer) side, 2 acyl side, 3 side chain; on linkers, the order of the positions; unused ones are H or OH. Bridge positions count the residues as written; N and C are the ends. Square brackets hold non-standard residues; d marks the D form. Peptide text beside a SMILES is read from it. X1 = CC(=O)NC(C(=O)OC(C(C)C)C(N[*:1])C(=O)[*:2])C(O)C(C)C; PhLac = O=C(O)[CH](O)Cc1ccccc1; NMeT = CN[CH](C(=O)O)[CH](C)O; NMeA = CN[CH](C)C(=O)O; NMeDha = C=C(NC)C(=O)O

Tests used:
GCGR with RAMP2 = details: GCGR coexpressed with RAMP2; ref [13]; cited from earlier work
Min6 B1 cells = experiment: Insulin secretion in siRNA-treated Min6 B1 cells; details: 10 nM and 1 nM agonist, n = 4
INS-1 832/3 cells [1] = details: 10 nM GIP, […] glucose
GIPR = details: Min6 B1, 8-min stimulation, n = 4
INS-1 832/3 cells [2] = experiment: Glucose-stimulated insulin secretion in INS-1 832/3 cells, GLP-1R agonists; format: cell-based, rat; details: 10 nM GLP-1; for effect of inhibitor on GLP-1-mediated insulin secretion: vector- and RAMP3-transfected, 30 min pretreatment, normalized to 10 nM GLP-1 + 0.1% DMSO
Nluc–GLP-1R [3] = molecular target: T1, Nluc–GLP-1R (Homo sapiens, UniProt P43220)
T1 sequence (P43220 24-463): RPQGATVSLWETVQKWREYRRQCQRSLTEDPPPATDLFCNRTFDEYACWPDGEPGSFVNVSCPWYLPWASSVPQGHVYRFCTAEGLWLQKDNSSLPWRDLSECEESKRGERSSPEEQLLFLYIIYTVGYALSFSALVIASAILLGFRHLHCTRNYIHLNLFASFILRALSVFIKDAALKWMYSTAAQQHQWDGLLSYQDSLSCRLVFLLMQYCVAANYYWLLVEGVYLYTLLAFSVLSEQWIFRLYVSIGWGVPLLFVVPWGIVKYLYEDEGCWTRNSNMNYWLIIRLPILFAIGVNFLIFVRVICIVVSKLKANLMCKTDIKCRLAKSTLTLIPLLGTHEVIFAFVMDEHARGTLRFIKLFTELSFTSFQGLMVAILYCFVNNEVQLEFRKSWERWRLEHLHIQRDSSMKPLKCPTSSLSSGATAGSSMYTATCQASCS

CLR–RAMP1 = details: ref [43]; cited from earlier work
Source text: As RAMP3 expression varies between tissues, it is possible that by directly targeting this complex, tissue-specific receptor activation could be facilitated. […] Agonists that have reduced affinity for the RAMP3 complex over the receptor alone ...

Nluc–GLP-1R [4] = molecular target: T1, Nluc–GLP-1R; format: cell-based; parameters: signal peptide of murine serotonin 5-HT3R (sig) (N); expressed in transfected cells; host or cells: HEK293T; details: HEK293T; over the concentration range tested
Nluc–GLP-1R [5] = molecular target: T1, Nluc–GLP-1R; format: cell-based; parameters: signal peptide of murine serotonin 5-HT3R (sig) (N); expressed in transfected cells; host or cells: HEK293T; details: HEK293T, absence of RAMP3
GLP-1R–Nluc (human) = GLP-1R–Nluc (human) (UniProt P43220)
GLP-1R–Nluc (human), sequence (P43220 24-463): as above

[6] = ref [3]; cited from earlier work
Source text: The incretin effect, whereby oral glucose elevates plasma insulin levels to a greater degree than intravenous administration, was first observed in 1964 ([1]). This is mediated by incretin hormones, the best known of which are GLP-1 and the glucose-dependent insulinotropic polypeptide (GIP). […] However, newer m ...

With glucagon: agonist of GCGR (cited) as the molecule, how does the “effect of RAMP2 on Gαs coupling/response at GCGR” value (GCGR with RAMP2) read?
The value was “increasing Gαs coupling”.

What does the source list for “glucose-dependent insulinotropic polypeptide [GIP]”?
effect of RAMP3 knockdown on insulin secretion (Min6 B1 cells): unaffected; effect of RAMP1 transfection on insulin secretion (INS-1 832/3 cells [1]): increased insulin secretion; effect of RAMP3 transfection on insulin secretion (INS-1 832/3 cells [1]): increased insulin secretion; effect of RAMP3 siRNA on cAMP accumulation (GIPR): no effect

For CC(C)(C)c1cc(C(=O)/C(C#N)=N/Nc2cccc(Cl)c2)no1 [ESI-09], which “effect of inhibitor on GLP-1-mediated insulin secretion” value (INS-1 832/3 cells [2]) is on record?
Its value is “significantly decreased; also recorded: significantly reduced insulin secretion”.

For Nc1ncnc2c1nc(Br)n2C1OC2COP(O)(=S)OC2C1O (stereo not shown) [Rp-8-Br-cAMPs], which “effect of inhibitor on GLP-1-mediated insulin secretion” value (INS-1 832/3 cells [2]) is on record?
Its value is “no effect; also recorded: unaffected”.

For “exendin-4 (from UniProt P26349 48-87) (peptide)”, which Ca^2+ mobilization, HEK293T, + 2xFLAG-RAMP3; pEC50 (Nluc–GLP-1R [3]) is on record?
Its Ca^2+ mobilization, HEK293T, + 2xFLAG-RAMP3; pEC50 is 8.6 pEC50.

What about the Ca^2+ mobilization, HEK293T, receptor alone; pEC50 (Nluc–GLP-1R [3]) of the same molecule?
Its Ca^2+ mobilization, HEK293T, receptor alone; pEC50 is 6.9 pEC50.

What about the cAMP accumulation, 8-min stimulation, HEK293T, + 2xFLAG-RAMP3; pEC50 (Nluc–GLP-1R [3]) of the same molecule?
The cAMP accumulation, 8-min stimulation, HEK293T, + 2xFLAG-RAMP3; pEC50 was 11.3 pEC50.

And the cAMP accumulation, 8-min stimulation, HEK293T, + FLAG-RAMP3; pEC50 (Nluc–GLP-1R [3])?
The cAMP accumulation, 8-min stimulation, HEK293T, + FLAG-RAMP3; pEC50 was 11.6 pEC50.

What about the cAMP accumulation, 8-min stimulation, HEK293T, receptor alone; pEC50 (Nluc–GLP-1R [3]) of the same molecule?
The cAMP accumulation, 8-min stimulation, HEK293T, receptor alone; pEC50 was 11.7 pEC50.

And the cAMP accumulation, 30-min stimulation, HEK293T, + 2xFLAG-RAMP3; pEC50 (Nluc–GLP-1R [3])?
The cAMP accumulation, 30-min stimulation, HEK293T, + 2xFLAG-RAMP3; pEC50 was 12.4 pEC50.

What about the cAMP accumulation, 30-min stimulation, HEK293T, + FLAG-RAMP3; pEC50 (Nluc–GLP-1R [3]) of the same molecule?
Its cAMP accumulation, 30-min stimulation, HEK293T, + FLAG-RAMP3; pEC50 is 12.8 pEC50.

What about the cAMP accumulation, 30-min stimulation, HEK293T, receptor alone; pEC50 (Nluc–GLP-1R [3]) of the same molecule?
The cAMP accumulation, 30-min stimulation, HEK293T, receptor alone; pEC50 was 13.1 pEC50.

With NCCCC[C@H](NC(=O)[C@@H](Cc1cc(Br)c(O)c(Br)c1)NC(=O)N1CCC(N2Cc3ccccc3NC2=O)CC1)C(=O)N1CCN(c2ccncc2)CC1 [BIBN 4096 BS] as the molecule, how does the “disruption of receptor–RAMP interaction” value (CLR–RAMP1) read?
Its value is “disrupt the interaction”.

With GLP-1 (9–36) as the molecule, how does the cAMP production (Nluc–GLP-1R [4]) read?
Its cAMP production is “did not elicit sufficient cAMP production over the concentration range tested”.

What about the “(Ca^2+)i mobilization” value (Nluc–GLP-1R [5]) of the same molecule?
Its value is “unable to elicit any (Ca^2+)i mobilization”.

Which results are given for liraglutide (peptide)?
Ca^2+ mobilization, HEK293T, + 2xFLAG-RAMP3; pEC50 (Nluc–GLP-1R [3]): 7.5 pEC50; Ca^2+ mobilization, HEK293T, + FLAG-RAMP3; pEC50 (Nluc–GLP-1R [3]): 7.4 pEC50; Ca^2+ mobilization, HEK293T, receptor alone; pEC50 (Nluc–GLP-1R [3]): 7.5 pEC50; cAMP accumulation, 8-min stimulation, HEK293T, + 2xFLAG-RAMP3; pEC50 (Nluc–GLP-1R [3]): 9.9 pEC50; cAMP accumulation, 8-min stimulation, HEK293T, + FLAG-RAMP3; pEC50 (Nluc–GLP-1R [3]): 10.3 pEC50; cAMP accumulation, 30-min stimulation, HEK293T, + 2xFLAG-RAMP3; pEC50 (Nluc–GLP-1R [3]): 10.1 pEC50; cAMP accumulation, 30-min stimulation, HEK293T, + FLAG-RAMP3; pEC50 (Nluc–GLP-1R [3]): 10.3 pEC50; cAMP accumulation, 30-min stimulation, HEK293T, receptor alone; pEC50 (Nluc–GLP-1R [3]): 10.4 pEC50; internalization (loss of BRET with RIT-Venus), HEK293T, + 2xFLAG-RAMP3; pEC50 (GLP-1R–Nluc (human)): 7.6 pEC50; internalization (loss of BRET with RIT-Venus), HEK293T, + FLAG-RAMP3; pEC50 (GLP-1R–Nluc (human)): 8.2 pEC50; internalization (loss of BRET with RIT-Venus), HEK293T, receptor alone; pEC50 (GLP-1R–Nluc (human)): 8.5 pEC50; β-arrestin1–YFP recruitment (BRET), HEK293T, + 2xFLAG-RAMP3; pEC50 (GLP-1R–Nluc (human)): 7.5 pEC50; β-arrestin1–YFP recruitment (BRET), HEK293T, + FLAG-RAMP3; pEC50 (GLP-1R–Nluc (human)): 7.1 pEC50; β-arrestin1–YFP recruitment (BRET), HEK293T, receptor alone; pEC50 (GLP-1R–Nluc (human)): 7 pEC50; β-arrestin2–YFP recruitment (BRET), HEK293T, + 2xFLAG-RAMP3; pEC50 (GLP-1R–Nluc (human)): 7.5 pEC50; β-arrestin2–YFP recruitment (BRET), HEK293T, + FLAG-RAMP3; pEC50 (GLP-1R–Nluc (human)): 7.1 pEC50; β-arrestin2–YFP recruitment (BRET), HEK293T, receptor alone; pEC50 (GLP-1R–Nluc (human)): 7.3 pEC50

Which “effect of inhibitor on GLP-1-mediated insulin secretion, RAMP3 vs vector” value (INS-1 832/3 cells [2]; YM-254890 100 nM, PTX 0.2 ng/μl) does the source give for C=C1C(=O)NC(C)C(=O)N(C)C(C)C(=O)NC(C(OC(=O)C(NC(C)=O)C(O)C(C)C)C(C)C)C(=O)N(C)C(C(C)OC)C(=O)OC(C)C(NC(C)=O)C(=O)OC(Cc2ccccc2)C(=O)N1C (stereo not shown) [YM-254890] (Ac-T[PhLac][NMeDha]A[NMeA][X1][NMeT](Me); ester 1-C; configuration not given here) here?
Its value is “decreased insulin secretion significantly only when RAMP3 was overexpressed; also recorded: only reduced insulin secretion in cells overexpressing RAMP3”.

For Semaglutide, which “protection against neurodegeneration and neuroinflammation” value [6] is on record?
Its value is “protect against neurodegeneration and neuroinflammation”.
